Source: patent US20260028422A1 (CONCEPT TO MEDICINE BIOTECH, published 2026)

T1: cyno MerTK-his protein (cynomolgus, UniProt A0A2K5V1H9 27-505)
T1 construct: also called cyno MerTK protein; Cynomolgus
T1 sequence: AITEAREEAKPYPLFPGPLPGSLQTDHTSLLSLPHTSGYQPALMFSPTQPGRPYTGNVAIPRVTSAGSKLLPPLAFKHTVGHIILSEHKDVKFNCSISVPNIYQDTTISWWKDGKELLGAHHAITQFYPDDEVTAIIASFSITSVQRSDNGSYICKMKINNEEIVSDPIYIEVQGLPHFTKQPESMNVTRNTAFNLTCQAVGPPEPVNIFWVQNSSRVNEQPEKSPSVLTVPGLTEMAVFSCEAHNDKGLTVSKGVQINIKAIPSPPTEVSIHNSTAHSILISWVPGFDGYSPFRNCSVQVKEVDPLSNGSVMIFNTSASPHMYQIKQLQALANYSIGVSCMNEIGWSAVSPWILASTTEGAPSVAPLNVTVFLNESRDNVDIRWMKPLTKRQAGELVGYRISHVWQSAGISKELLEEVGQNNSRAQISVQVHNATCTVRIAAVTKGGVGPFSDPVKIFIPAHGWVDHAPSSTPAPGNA

T2: human MerTK-his protein (human, UniProt Q12866 21-505)
T2 construct: extracellular domain; also called hMerTK-His; human MerTK protein
T2 sequence (looked up): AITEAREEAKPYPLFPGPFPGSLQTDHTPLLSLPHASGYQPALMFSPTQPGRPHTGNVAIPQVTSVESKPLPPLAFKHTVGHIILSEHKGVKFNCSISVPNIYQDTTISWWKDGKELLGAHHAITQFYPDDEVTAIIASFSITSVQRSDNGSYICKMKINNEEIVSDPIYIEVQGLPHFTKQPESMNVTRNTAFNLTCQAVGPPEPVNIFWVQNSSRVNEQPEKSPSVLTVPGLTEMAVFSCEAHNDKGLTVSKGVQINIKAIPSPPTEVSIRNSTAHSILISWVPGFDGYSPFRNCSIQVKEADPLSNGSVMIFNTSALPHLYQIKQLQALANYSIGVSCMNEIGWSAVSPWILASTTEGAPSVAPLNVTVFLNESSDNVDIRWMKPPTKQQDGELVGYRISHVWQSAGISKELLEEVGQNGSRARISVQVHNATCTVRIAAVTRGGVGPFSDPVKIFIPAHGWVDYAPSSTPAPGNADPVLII

T3: human MerTK expressed on cells (human, UniProt Q12866 21-999)
T3 construct: whole, on cells; also called CHO-K1-hMerTK; CHO-K1-MerTK
T3 sequence (looked up): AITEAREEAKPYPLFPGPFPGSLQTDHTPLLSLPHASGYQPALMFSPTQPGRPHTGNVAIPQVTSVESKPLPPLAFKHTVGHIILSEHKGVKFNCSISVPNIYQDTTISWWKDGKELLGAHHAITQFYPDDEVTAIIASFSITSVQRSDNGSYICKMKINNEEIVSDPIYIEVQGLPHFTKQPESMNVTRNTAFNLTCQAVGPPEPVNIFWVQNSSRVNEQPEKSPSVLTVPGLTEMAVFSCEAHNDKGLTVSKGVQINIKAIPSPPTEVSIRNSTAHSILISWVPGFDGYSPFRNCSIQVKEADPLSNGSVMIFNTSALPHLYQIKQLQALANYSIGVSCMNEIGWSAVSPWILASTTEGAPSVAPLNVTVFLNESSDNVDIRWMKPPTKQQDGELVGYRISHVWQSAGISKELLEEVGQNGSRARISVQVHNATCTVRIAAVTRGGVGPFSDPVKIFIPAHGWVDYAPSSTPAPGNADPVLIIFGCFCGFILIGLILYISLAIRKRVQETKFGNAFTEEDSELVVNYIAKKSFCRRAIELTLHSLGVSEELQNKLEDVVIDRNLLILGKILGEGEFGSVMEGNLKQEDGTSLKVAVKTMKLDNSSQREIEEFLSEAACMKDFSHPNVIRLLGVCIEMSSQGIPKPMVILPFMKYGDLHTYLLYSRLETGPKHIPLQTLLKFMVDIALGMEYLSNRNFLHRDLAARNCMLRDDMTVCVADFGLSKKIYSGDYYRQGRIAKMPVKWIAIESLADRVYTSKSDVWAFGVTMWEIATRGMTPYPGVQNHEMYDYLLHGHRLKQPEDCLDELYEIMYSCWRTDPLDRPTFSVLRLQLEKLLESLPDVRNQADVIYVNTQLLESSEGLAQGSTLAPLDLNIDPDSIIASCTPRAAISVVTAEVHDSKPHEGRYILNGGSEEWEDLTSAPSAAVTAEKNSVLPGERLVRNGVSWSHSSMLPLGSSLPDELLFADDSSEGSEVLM


Columns and labels:
cyno MerTK-his protein = target: T1, cyno MerTK-his protein; test: ELISA, plate coated with cyno MerTK-his, anti-human IgG Fc-HRP, OD 450nm
human MerTK-his protein = target: T2, human MerTK-his protein; test: ELISA, plate coated with human MerTK-his, anti-human IgG Fc-HRP, OD 450nm
[1] = target: T3, human MerTK expressed on cells; test: FACS on CHO-K1 cells overexpressing human MerTK, MFI (AF488)

EC50 (cyno MerTK-his protein)	EC50 (human MerTK-his protein)	EC50 [1]	Binder
0.044 nM	0.037 nM	–	h13B4.v16 benchmark antibody (antibody, V domains shown) VH: EVQLVESGEGLVQPGGSLRLSCAASGFSLSSYAMGWVRQAPGKGLEYVGIINSYGNTYYANWAKGRFTISRDNSKNTVYLQMGSLRAEDMAVYYCARDPGVSSNLWGRGTLVTVSS VL: DIQMTQSPSTLSASVGDRVTITCQASQNIYSGLAWYQQKPGKAPKLLIYGASKLASGVPSRFSGSGSGTEFTLTISSLQPDDFATYYCQATYYSSNSVAFGGGTKVEIK
–	–	0.18 nM	265F11B5 chimeric monoclonal antibody (antibody, V domains shown) VH: QVQLQQSGPELVKPGASVRLSCKASGYTFTTYDINWVKQRPGLGLEWIGWIYPRDGYTKYNEKFKGRATLAVDTSSSTAYMELHSLTSEDSAVYFCTRGYYDNLYYFDYWGQGTTLTVSS VL: EIVLTQSPTTVAASPGEKITITCSASSIISSNYFHWYQQRPGFSPKLLIYRTSNLASGVPARFSGSGSGTSYSLTIGTMEAEDVATYYCQQGRSVPLTFGAGTKLELK
